Assay results as given in paper PMC6182155 (Nucleic Acids Research, 2018).

B1: EcoKMcrA with C-terminal His6-tag (EcoKMcrA_(1-277)-GHHHHHHG), wild type (enzyme, E. coli (K strains), UniProt P24200 1-277, looked up)
chain: MHVFDNNGIELKAECSIGEEDGVYGLILESWGPGDRNKDYNIALDYIIERLVDSGVSQVVVYLASSSVRKHMHSLDERKIHPGEYFTLIGNSPRDIRLKMCGYQAYFSRTGRKEIPSGNRTKRILINVPGIYSDSFWASIIRGELSELSQPTDDESLLNMRVSKLIKKTLSQPEGSRKPVEVERLQKVYVRDPMVKAWILQQSKGICENCGKNAPFYLNDGNPYLEVHHVIPLSSGGADTTDNCVALCPNCHRELHYSKNAKELIEMLYVNINRLQK
B2: EcoKMcrA K196E variant with N-terminal His6-tag (…-EcoKMcrA_(1-277)) (enzyme, E. coli (K strains), UniProt P24200 1-277, looked up)
chain: MHVFDNNGIELKAECSIGEEDGVYGLILESWGPGDRNKDYNIALDYIIERLVDSGVSQVVVYLASSSVRKHMHSLDERKIHPGEYFTLIGNSPRDIRLKMCGYQAYFSRTGRKEIPSGNRTKRILINVPGIYSDSFWASIIRGELSELSQPTDDESLLNMRVSKLIKKTLSQPEGSRKPVEVERLQKVYVRDPMVEAWILQQSKGICENCGKNAPFYLNDGNPYLEVHHVIPLSSGGADTTDNCVALCPNCHRELHYSKNAKELIEMLYVNINRLQK

Legend:
SEC = target: the molecule itself; test: SEC
crystal structure = target: the molecule itself; test: crystal structure

Protein | stoichiometry N (SEC) | binding result (crystal structure)
B1 | 2 | –
B2 | – | binds
